Data: publication PMC3821618

Molecular target: TagRFP-T (Entacmaea quadricolor)
Experiment: fluorescence correlation spectroscopy (FCS), molecular brightness analysis; live transfected mouse GHFT1 cells, cytosol; molecular brightness Mb = CPS/(N*Po) from one-component autocorrelation fits, compared with published intrinsic brightness and between FP alone and FP-BZip; 561 nm excitation, 36 °C, 5% CO2

- fraction of the molecules that are dimers: 30%
Substance: TagRFP-T
